From patent US20200317768A1 (published 2020)

T1: cynomolgus monkey FcγRIIb extracellular domain with C-terminal His-tag (cynomolgus monkey)
T1 construct: also called cyno FcgRIIb; cynoFcγRIIb
T1 chain: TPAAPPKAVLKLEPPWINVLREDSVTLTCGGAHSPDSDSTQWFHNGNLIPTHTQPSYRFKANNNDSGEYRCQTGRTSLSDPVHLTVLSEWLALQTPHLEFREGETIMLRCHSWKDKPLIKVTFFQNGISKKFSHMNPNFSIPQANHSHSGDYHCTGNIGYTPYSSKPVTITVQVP

T2: human FcγRIIaH extracellular domain with C-terminal His-tag (human, UniProt P12318 34-217)
T2 construct: also called human FcgRIIaH; FcγRIIa (type H)
T2 sequence: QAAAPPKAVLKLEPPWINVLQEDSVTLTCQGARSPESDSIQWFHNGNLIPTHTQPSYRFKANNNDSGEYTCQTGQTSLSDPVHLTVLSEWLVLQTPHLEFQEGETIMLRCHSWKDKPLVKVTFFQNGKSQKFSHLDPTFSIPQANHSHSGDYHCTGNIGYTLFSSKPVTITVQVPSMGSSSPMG

T3: cynomolgus monkey FcγRIIa1 extracellular domain with C-terminal His-tag (cynomolgus monkey)
T3 construct: also called cyno FcgRIIa1; cynoFcγRIIa1
T3 chain: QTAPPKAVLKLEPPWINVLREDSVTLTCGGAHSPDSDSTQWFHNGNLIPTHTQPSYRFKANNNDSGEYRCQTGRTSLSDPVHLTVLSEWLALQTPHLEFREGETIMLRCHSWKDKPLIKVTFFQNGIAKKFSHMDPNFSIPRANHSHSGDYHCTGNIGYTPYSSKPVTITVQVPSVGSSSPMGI

T4: cynomolgus monkey FcγRIIIaS extracellular domain with C-terminal His-tag (cynomolgus monkey, UniProt Q8SPW2 21-206 at identity 1.00))
T4 construct: also called cyno FcgRIIIaS; cynoFcγRIIIaS
T4 chain: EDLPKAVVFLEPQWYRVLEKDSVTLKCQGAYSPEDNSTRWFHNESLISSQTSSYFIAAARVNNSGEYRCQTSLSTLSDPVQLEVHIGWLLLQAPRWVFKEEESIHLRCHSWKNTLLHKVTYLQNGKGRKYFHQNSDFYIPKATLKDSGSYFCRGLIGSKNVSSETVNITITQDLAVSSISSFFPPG

T5: human FcγRIIb extracellular domain with C-terminal His-tag (human, UniProt P31994 43-217)
T5 construct: also called human FcgRIIb
T5 sequence: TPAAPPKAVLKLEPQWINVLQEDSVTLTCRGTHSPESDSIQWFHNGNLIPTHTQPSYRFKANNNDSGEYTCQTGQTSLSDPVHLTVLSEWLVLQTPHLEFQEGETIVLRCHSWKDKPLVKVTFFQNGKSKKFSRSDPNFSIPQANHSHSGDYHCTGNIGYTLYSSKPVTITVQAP

T6: cynomolgus monkey FcγRIIa2 extracellular domain with C-terminal His-tag (cynomolgus monkey)
T6 construct: also called cyno FcgRIIa2; cynoFcγRIIa2
T6 chain: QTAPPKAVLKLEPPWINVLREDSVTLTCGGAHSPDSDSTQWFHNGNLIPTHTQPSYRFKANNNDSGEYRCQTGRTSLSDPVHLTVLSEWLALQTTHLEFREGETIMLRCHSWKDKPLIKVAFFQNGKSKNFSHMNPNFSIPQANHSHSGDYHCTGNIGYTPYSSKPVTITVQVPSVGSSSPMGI

T7: human FcγRIIaR extracellular domain with C-terminal His-tag (human, UniProt P12318 34-217)
T7 construct: also called human FcgRIIaR; FcγRIIa (type R)
T7 chain: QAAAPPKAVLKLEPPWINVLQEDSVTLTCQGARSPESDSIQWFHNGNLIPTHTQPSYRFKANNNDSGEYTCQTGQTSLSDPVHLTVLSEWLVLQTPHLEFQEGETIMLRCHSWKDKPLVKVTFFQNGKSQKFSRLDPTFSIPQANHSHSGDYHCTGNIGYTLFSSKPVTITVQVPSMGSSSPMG


Key:
Experiment in all cases: SPR (BIACORE), antibody captured, FcgR analyte
[1] = molecular target: T1, cynomolgus monkey FcγRIIb extracellular …
[2] = molecular target: T2, human FcγRIIaH extracellular domain …
[3] = molecular target: T3, cynomolgus monkey FcγRIIa1 …
[4] = molecular target: T4, cynomolgus monkey FcγRIIIaS …
[5] = molecular target: T5, human FcγRIIb extracellular domain with …
[6] = molecular target: T6, cynomolgus monkey FcγRIIa2 …
[7] = molecular target: T7, human FcγRIIaR extracellular domain …

| Binder | Kd [1] | Kd [2] | Kd [3] | Kd [4] | Kd [5] | Kd [6] | Kd [7] |
| --- | --- | --- | --- | --- | --- | --- | --- |
| M103205H795-MY400/M103202L889-SK1 (antibody, human IgG1, kappa, Substitutions introduced into M103205H795-SG1, expressed with M103202L889-SK1 as light chain; EU numbering) heavy: QVTLKESGPVLVKPTETLTLTCTVSGIDLSHDDISWVRQAPGKGLEWVGIISYAGSTYYASWAKGRLTISKDTSKNQVVLTMTNMDPVDTATYYCARGVPAYSHGGDLWGQGTLVTVSSASTKGPSVFPLAPSSKSTSGGTAALGCLVKDYFPEPVTVSWNSGALTSGVHTFPAVLQSSGLYSLSSVVTVPSSSLGTQTYICNVNHKPSNTKVDKKVEPKSCDKTHTCPPCPAPELLTGPSVFLFPPKPKDTLMISRTPEVTCVVVDVSDEDPEVKFNWYVDGVEVHNAKTKPREEQYNSTYRVVSVLTVLHQDWLNGKEYKCKVSNKALPKEIEKTISKAKGQPREPQVYTLPPSREEMTKNQVSLTCLVKGFYPSDIAVEWESNGQPENNYKTTPPVLDSDGSFFLYSKLTVDKSRWQQGNVFSCSVMHEALHNHYTQKSLSLSP light: DIVMTQSPATLSLSPGERATLSCTSSQSVYHANWLSWFQQKPGQPPKLLIYWASTLAYGVPSRFSGSGSGTDFTLTISSLQPEDAATYYCAGGYGGGRYAFGQGTKVEIKRTVAAPSVFIFPPSDEQLKSGTASVVCLLNNFYPREAKVQWKVDNALQSGNSQESVTEQDSKDSTYSLSSTLTLSKADYEKHKVYACEVTHQGLSSPVTKSFNRGEC | 630 nM | 420 nM | 18000 nM | 24000 nM | 2500 nM | 2200 nM | 740 nM |
| M103205H795-MY392/M103202L889-SK1 (antibody, human IgG1, kappa, Substitutions introduced into M103205H795-SG1, expressed with M103202L889-SK1 as light chain; EU numbering) heavy: QVTLKESGPVLVKPTETLTLTCTVSGIDLSHDDISWVRQAPGKGLEWVGIISYAGSTYYASWAKGRLTISKDTSKNQVVLTMTNMDPVDTATYYCARGVPAYSHGGDLWGQGTLVTVSSASTKGPSVFPLAPSSKSTSGGTAALGCLVKDYFPEPVTVSWNSGALTSGVHTFPAVLQSSGLYSLSSVVTVPSSSLGTQTYICNVNHKPSNTKVDKKVEPKSCDKTHTCPPCPAPELLTGPSVFLFPPKPKDTLMISRTPEVTCVVVDVSDEDPEVKFNWYVDGVEVHNAKTKPREEQYNLTYRVVSVLTVLHQDWLNGKEYKCKVSNKALPKPIEKTISKAKGQPREPQVYTLPPSREEMTKNQVSLTCLVKGFYPSDIAVEWESNGQPENNYKTTPPVLDSDGSFFLYSKLTVDKSRWQQGNVFSCSVMHEALHNHYTQKSLSLSP light: DIVMTQSPATLSLSPGERATLSCTSSQSVYHANWLSWFQQKPGQPPKLLIYWASTLAYGVPSRFSGSGSGTDFTLTISSLQPEDAATYYCAGGYGGGRYAFGQGTKVEIKRTVAAPSVFIFPPSDEQLKSGTASVVCLLNNFYPREAKVQWKVDNALQSGNSQESVTEQDSKDSTYSLSSTLTLSKADYEKHKVYACEVTHQGLSSPVTKSFNRGEC | 700 nM | 430 nM | 300 nM | 4000 nM | 1700 nM | 2300 nM | 410 nM |

Next, values leading:

| Kd [1] | Kd [2] | Kd [3] | Kd [4] | Kd [5] | Kd [6] | Kd [7] | Binder |
| --- | --- | --- | --- | --- | --- | --- | --- |
| 760 nM | 330 nM | 2200 nM | 1600 nM | 1500 nM | 1700 nM | 230 nM | M103205H795-MY388/M103202L889-SK1 (antibody, human IgG1, kappa, Substitutions introduced into M103205H795-SG1, expressed with M103202L889-SK1 as light chain; EU numbering) heavy: QVTLKESGPVLVKPTETLTLTCTVSGIDLSHDDISWVRQAPGKGLEWVGIISYAGSTYYASWAKGRLTISKDTSKNQVVLTMTNMDPVDTATYYCARGVPAYSHGGDLWGQGTLVTVSSASTKGPSVFPLAPSSKSTSGGTAALGCLVKDYFPEPVTVSWNSGALTSGVHTFPAVLQSSGLYSLSSVVTVPSSSLGTQTYICNVNHKPSNTKVDKKVEPKSCDKTHTCPPCPAPELLTGPIVFLFPPKPKDTLMISRTPEVTCVVVDVSDEDPEVKFNWYVDGVEVHNAKTKPREEQYNSTYRVVSVLTVLHQDWLNGKEYKCKVSNKALPKPIEKTISKAKGQPREPQVYTLPPSREEMTKNQVSLTCLVKGFYPSDIAVEWESNGQPENNYKTTPPVLDSDGSFFLYSKLTVDKSRWQQGNVFSCSVMHEALHNHYTQKSLSLSP light: DIVMTQSPATLSLSPGERATLSCTSSQSVYHANWLSWFQQKPGQPPKLLIYWASTLAYGVPSRFSGSGSGTDFTLTISSLQPEDAATYYCAGGYGGGRYAFGQGTKVEIKRTVAAPSVFIFPPSDEQLKSGTASVVCLLNNFYPREAKVQWKVDNALQSGNSQESVTEQDSKDSTYSLSSTLTLSKADYEKHKVYACEVTHQGLSSPVTKSFNRGEC |
| 700 nM | 270 nM | 2000 nM | 1500 nM | 1100 nM | 16000 nM | 190 nM | M103205H795-MY389/M103202L889-SK1 (antibody, human IgG1, kappa, Substitutions introduced into M103205H795-SG1, expressed with M103202L889-SK1 as light chain; EU numbering) heavy: QVTLKESGPVLVKPTETLTLTCTVSGIDLSHDDISWVRQAPGKGLEWVGIISYAGSTYYASWAKGRLTISKDTSKNQVVLTMTNMDPVDTATYYCARGVPAYSHGGDLWGQGTLVTVSSASTKGPSVFPLAPSSKSTSGGTAALGCLVKDYFPEPVTVSWNSGALTSGVHTFPAVLQSSGLYSLSSVVTVPSSSLGTQTYICNVNHKPSNTKVDKKVEPKSCDKTHTCPPCPAPELLTGPLVFLFPPKPKDTLMISRTPEVTCVVVDVSDEDPEVKFNWYVDGVEVHNAKTKPREEQYNSTYRVVSVLTVLHQDWLNGKEYKCKVSNKALPKPIEKTISKAKGQPREPQVYTLPPSREEMTKNQVSLTCLVKGFYPSDIAVEWESNGQPENNYKTTPPVLDSDGSFFLYSKLTVDKSRWQQGNVFSCSVMHEALHNHYTQKSLSLSP light: DIVMTQSPATLSLSPGERATLSCTSSQSVYHANWLSWFQQKPGQPPKLLIYWASTLAYGVPSRFSGSGSGTDFTLTISSLQPEDAATYYCAGGYGGGRYAFGQGTKVEIKRTVAAPSVFIFPPSDEQLKSGTASVVCLLNNFYPREAKVQWKVDNALQSGNSQESVTEQDSKDSTYSLSSTLTLSKADYEKHKVYACEVTHQGLSSPVTKSFNRGEC |
| 760 nM | 350 nM | 260 nM | 4400 nM | 690 nM | 1600 nM | 160 nM | M103205H795-MY514/M103202L889-SK1 (antibody, human IgG1, kappa, Substitutions introduced into M103205H795-SG1, expressed with M103202L889-SK1 as light chain; EU numbering) heavy: QVTLKESGPVLVKPTETLTLTCTVSGIDLSHDDISWVRQAPGKGLEWVGIISYAGSTYYASWAKGRLTISKDTSKNQVVLTMTNMDPVDTATYYCARGVPAYSHGGDLWGQGTLVTVSSASTKGPSVFPLAPSSKSTSGGTAALGCLVKDYFPEPVTVSWNSGALTSGVHTFPAVLQSSGLYSLSSVVTVPSSSLGTQTYICNVNHKPSNTKVDKKVEPKSCDKTHTCPPCPAPELLTGPVVFLFPPKPKDTLMISRTPEVTCVVVDVSDEDPEVKFNWYVDGVEVHNAKTKPREEQYNLTYRVVSVLTVLHQDWLNGKEYKCKVSNKALPKPIEKTISKAKGQPREPQVYTLPPSREEMTKNQVSLTCLVKGFYPSDIAVEWESNGQPENNYKTTPPVLDSDGSFFLYSKLTVDKSRWQQGNVFSCSVMHEALHNHYTQKSLSLSP light: DIVMTQSPATLSLSPGERATLSCTSSQSVYHANWLSWFQQKPGQPPKLLIYWASTLAYGVPSRFSGSGSGTDFTLTISSLQPEDAATYYCAGGYGGGRYAFGQGTKVEIKRTVAAPSVFIFPPSDEQLKSGTASVVCLLNNFYPREAKVQWKVDNALQSGNSQESVTEQDSKDSTYSLSSTLTLSKADYEKHKVYACEVTHQGLSSPVTKSFNRGEC |
